The target in experiment [1] is T1, human recombinant WARS1 protein (tryptophanyl-tRNA synthetase 1) (human, UniProt P23381 1-471, limits assumed).
T1 construct: Recombinant protein; also called 人WARS1; 人重组蛋白
T1 sequence (looked up): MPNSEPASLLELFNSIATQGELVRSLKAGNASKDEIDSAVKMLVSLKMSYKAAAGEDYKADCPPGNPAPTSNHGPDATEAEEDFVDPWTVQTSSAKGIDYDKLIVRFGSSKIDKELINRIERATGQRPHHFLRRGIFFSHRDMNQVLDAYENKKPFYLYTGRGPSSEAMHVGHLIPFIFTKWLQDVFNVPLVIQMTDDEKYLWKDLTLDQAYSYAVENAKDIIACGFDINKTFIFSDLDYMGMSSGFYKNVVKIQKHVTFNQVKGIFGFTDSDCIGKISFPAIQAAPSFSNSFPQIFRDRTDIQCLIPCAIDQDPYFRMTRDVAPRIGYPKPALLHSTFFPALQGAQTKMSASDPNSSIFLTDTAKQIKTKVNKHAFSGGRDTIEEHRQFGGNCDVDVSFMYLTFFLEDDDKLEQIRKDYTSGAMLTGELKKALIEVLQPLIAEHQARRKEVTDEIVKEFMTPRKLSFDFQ
As to the kind of experiment: SPR, Biacore T200, CM5 chip.

Experiment [2] addresses T2, mouse recombinant WARS1 protein (mouse, UniProt P32921 1-481, limits assumed).
T2 construct: Recombinant protein; also called 小鼠WARS1; 小鼠重组蛋白
T2 sequence (looked up): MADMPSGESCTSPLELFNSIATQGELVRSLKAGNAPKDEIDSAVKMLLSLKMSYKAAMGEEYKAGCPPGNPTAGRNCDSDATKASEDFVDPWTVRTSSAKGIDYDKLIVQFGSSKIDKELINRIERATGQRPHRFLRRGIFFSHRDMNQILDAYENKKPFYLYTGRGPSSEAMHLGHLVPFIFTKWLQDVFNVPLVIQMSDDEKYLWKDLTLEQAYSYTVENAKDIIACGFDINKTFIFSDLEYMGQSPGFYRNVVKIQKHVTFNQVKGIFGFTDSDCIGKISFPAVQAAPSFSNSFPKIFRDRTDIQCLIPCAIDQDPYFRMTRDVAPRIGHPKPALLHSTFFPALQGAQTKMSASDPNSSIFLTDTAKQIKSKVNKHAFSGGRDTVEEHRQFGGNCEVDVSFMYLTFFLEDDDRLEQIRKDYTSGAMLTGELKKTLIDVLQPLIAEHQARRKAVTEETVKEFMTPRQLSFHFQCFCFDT
As to the kind of experiment: SPR, Biacore T200, CM5 chip. (Surface plasmon resonance follows binding to a sensor surface in real time, without labels.)

B1: GKB101 (antibody, V domains shown)
VH: EVQLLESGGGLVQPGGSLRLSCAASGFTFSSYDMSWVRQAPGKGLEWVSAISSGGSSIYYADSVKGRFTISRDNSKNTLYLQMNSLRAEDTAVYYCARDVAWDMLGDFDYWGQGTLVTVSS
VL: QSVLTQPPSASGTPGQRVTISCTGSSSNIGSNYVYWYQQLPGTAPKLLIYANSHRPSGVPDRFSGSKSGTSASLAISGLRSEDEADYYCGAWDDSLSAYVFGGGTKLTV
notes: also called WARS1特异性抗体; 抗WARS1抗体
Broadly, the Kd is the concentration at which binding is half-saturated. For the molecule B1, the Kd in experiment [1] is roughly 0.2 nM; in experiment [2] it was roughly 3.76 nM.

The record behind these values is patent CN116710484A (MYLINGENE INC, dated 2023).
